Data from US20170267757A1.

Experiments:
Experiment in all cases: sandwich ELISA, antibody as capture 100 ng/well, CHO-K1 supernatant, anti-human Ig-HRP
[1] = molecular target: CD66c mutant (HPK/HdIII/PstI/klenow)-hFc (human)
[2] = molecular target: CD66c mutant (BI/BHI)-hFc (human)
[3] = molecular target: CD66c-HuIgFc recombinant antigen (human)
CD66c-HuIgFc recombinant antigen (human), sequence (chain, as listed by the source limits assumed): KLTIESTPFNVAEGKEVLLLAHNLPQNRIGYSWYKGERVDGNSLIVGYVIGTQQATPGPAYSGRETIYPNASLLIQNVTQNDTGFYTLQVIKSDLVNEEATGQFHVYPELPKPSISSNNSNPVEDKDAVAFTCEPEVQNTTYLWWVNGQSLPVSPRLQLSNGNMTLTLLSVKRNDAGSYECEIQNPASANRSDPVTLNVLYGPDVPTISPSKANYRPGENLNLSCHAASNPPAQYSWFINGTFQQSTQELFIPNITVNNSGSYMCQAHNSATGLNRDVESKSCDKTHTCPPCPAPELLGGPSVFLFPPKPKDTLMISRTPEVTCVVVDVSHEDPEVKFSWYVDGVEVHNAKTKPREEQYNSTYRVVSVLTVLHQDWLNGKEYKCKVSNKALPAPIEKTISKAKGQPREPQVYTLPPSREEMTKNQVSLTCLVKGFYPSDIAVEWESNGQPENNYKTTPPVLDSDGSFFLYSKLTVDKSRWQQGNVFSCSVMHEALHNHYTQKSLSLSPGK

CD66c mutant (HPK/HdIII/PstI/klenow)-hFc (human), sequence (chain, as listed by the source mutant limits assumed, form in doubt): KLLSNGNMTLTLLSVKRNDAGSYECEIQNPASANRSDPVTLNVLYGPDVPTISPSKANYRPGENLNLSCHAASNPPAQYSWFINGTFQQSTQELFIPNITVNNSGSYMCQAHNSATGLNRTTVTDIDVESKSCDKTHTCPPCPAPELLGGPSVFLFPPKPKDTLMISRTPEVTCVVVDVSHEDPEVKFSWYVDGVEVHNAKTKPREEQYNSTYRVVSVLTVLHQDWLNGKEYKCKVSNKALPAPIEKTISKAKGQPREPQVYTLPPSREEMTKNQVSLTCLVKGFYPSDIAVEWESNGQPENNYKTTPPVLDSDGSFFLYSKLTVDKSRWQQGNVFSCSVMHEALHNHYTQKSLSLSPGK
CD66c mutant (BI/BHI)-hFc (human), sequence (chain, as listed by the source mutant limits assumed, form in doubt): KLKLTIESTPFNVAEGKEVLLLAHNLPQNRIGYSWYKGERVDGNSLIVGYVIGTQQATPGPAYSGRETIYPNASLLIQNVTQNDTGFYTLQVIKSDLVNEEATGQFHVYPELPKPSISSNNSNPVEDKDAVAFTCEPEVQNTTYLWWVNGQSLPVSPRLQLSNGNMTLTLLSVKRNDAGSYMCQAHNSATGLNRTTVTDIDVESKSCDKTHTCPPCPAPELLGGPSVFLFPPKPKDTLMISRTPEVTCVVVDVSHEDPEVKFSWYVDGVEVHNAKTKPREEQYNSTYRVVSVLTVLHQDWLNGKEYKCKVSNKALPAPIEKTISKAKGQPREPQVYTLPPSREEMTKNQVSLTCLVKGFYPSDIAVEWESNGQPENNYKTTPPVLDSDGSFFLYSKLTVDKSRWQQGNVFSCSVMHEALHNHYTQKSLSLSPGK

- absorbance at 450 nm (absorbance at 450 nm) [1]: 0.049
- absorbance at 450 nm (absorbance at 450 nm) [2]: 1.92
- absorbance at 450 nm (absorbance at 450 nm) [3]: 2.84
Substance: 9A6 anti-CD66c monoclonal antibody (Santa Cruz)
